These results are taken from FireProtDB (doi:10.1006/jmbi.1995.0616).

To fix the notation:
B1: Subtilisin-chymotrypsin inhibitor-2A, P01053 (parent)
chain: MSSVEKKPEGVNTGAGDRHNLKTEWPELVGKSVEEAKKVILQDKPEAQIIVLPVGTIVTMEYRIDRVRLFVDKLDNIAQVPRVG

Variants of B1 are the subject of the data set. To be noted: Hordeum vulgare; pH 6.25; 25 °C; GdnHCl; Fluorescence; MES 50 mM; reversible: yes; structure 2CI2; whole UniProt chain shown.

For the variant MSSVEKKPEGVNTGAGDRHNLKTEWPELVGKSVEEAKKVILQDKPEAQIIVLPVGTIVTMEYRIARVRLFVDKLDNIAQVPRVG, the “ddG of mutation (higher = less stable)” value came out at 1.02 kcal/mol, the denaturant m value was found to be 1.83 kcal/mol/M, the “denaturant midpoint (higher = more stable)” value (“denaturant midpoint” below) came out at 3.59 M and the unfolding free energy was found to be 6.58 kcal/mol.

Consider MSSVEKKPEGVNTGAGDRHNLKTEWAELVGKSVEEAKKVILQDKPEAQIIVLPVGTIVTMEYRIDRVRLFVDKLDNIAQVPRVG, for which the denaturant m value is 3.46 kcal/mol/M and the “denaturant midpoint” value is 3.19 M.

For MSSVEKKPEGVNTGAGDRHNLKTEWPELVGKSVEEAKKVILQDKPEAQIIVLPVGTIVTMEYRIDRVRLFVDNLDNIAQVPRVG, the “ddG of mutation (higher = less stable)” value was 1.21 kcal/mol, the denaturant m value was 1.6 kcal/mol/M, the “denaturant midpoint” value is 4 M and the unfolding free energy came out at 6.39 kcal/mol.

Take MSSVEKKPEGVNTGAGDRHNLKTEWPELVGKSVEEAKKVILQDKPEAQIIVLPVGTIVTMEYRIDRVRLLVDKLDNIAQVPRVG: the “ddG of mutation (higher = less stable)” value amounted to 1.92 kcal/mol, the denaturant m value amounted to 1.95 kcal/mol/M, the “denaturant midpoint” value was found to be 2.91 M and the unfolding free energy amounted to 5.68 kcal/mol.

Regarding MSSVEKKPEGVNTGAGDRHNLKTEWPELVGKSVEEAKKVILQDKPEAQIIVLPVGTIVTMEYRIDRVRLVVDKLDNIAQVPRVG, the “ddG of mutation (higher = less stable)” value was 1.41 kcal/mol, the denaturant m value was 2.24 kcal/mol/M, the “denaturant midpoint” value worked out at 2.77 M and the unfolding free energy is 6.19 kcal/mol.

For the variant MSSVEKKPEGVNTGAGDRHNLKTEWPELVGKSVEEAKKVILQDKPEAQIIVLPVGTIVTMEYRIDRVRLAVDKLDNIAQVPRVG, the “ddG of mutation (higher = less stable)” value is 3.21 kcal/mol, the denaturant m value was 2.17 kcal/mol/M, the “denaturant midpoint” value was 2.02 M and the unfolding free energy worked out at 4.39 kcal/mol.

Regarding MSSVEKKPEGVNTGAGDRHNLKTEWPELVGKSVEEAKKVILQDKPEAQIIVLPVGTIVTMEYRIDRVRLFVAKLDNIAQVPRVG, the “ddG of mutation (higher = less stable)” value was determined as 3.14 kcal/mol, the denaturant m value came to 1.99 kcal/mol/M, the “denaturant midpoint” value turned out to be 2.24 M and the unfolding free energy was 4.46 kcal/mol.

As for MSSVEKKPEGVNTGAGDRHNLKTEWPELVGKSVEEAKKVILQDKPEAQIIVLPVGTIVTMEYRIDRVRLFVDKLDNIAQVARVG, the “ddG of mutation (higher = less stable)” value worked out at 3.5 kcal/mol, the denaturant m value was 1.8 kcal/mol/M, the “denaturant midpoint” value came to 2.28 M and the unfolding free energy was determined as 4.1 kcal/mol.

With MSSVEKKPEGVNTGAGDRHNLKTEWPELVGKSVEEAKKVILQDKPEAQIIVLPVGTIVTMEYAIDRVRLFVDKLDNIAQVPRVG, the “ddG of mutation (higher = less stable)” value came to 1.02 kcal/mol, the denaturant m value was found to be 1.78 kcal/mol/M, the “denaturant midpoint” value amounted to 3.7 M and the unfolding free energy was determined as 6.58 kcal/mol.

Regarding MSSVEKKPEGVNTGAGDRHNLKTEWPELVGKSVEEAKKVILQDKPEAQIIVLPVGTIVTMAYRIDRVRLFVDKLDNIAQVPRVG, the “ddG of mutation (higher = less stable)” value was 1.12 kcal/mol, the denaturant m value is 1.78 kcal/mol/M, the “denaturant midpoint” value worked out at 3.64 M and the unfolding free energy was determined as 6.48 kcal/mol.

With MSSVEKKPEGVNTGAGDRHNLKTEWPELVGKSVEEAKKVILQDKPEAQIIVLPVGTIVTMEYAIARVRLFVDKLDNIAQVPRVG, the “ddG of mutation (higher = less stable)” value worked out at 2.46 kcal/mol, the denaturant m value turned out to be 1.53 kcal/mol/M, the “denaturant midpoint” value turned out to be 3.37 M and the unfolding free energy came to 5.14 kcal/mol.
